Experimental data: US20210253718A1, “FRIZZLED5 PROTEIN-BINDING AGENTS” (Modmab Therapeutics Corporation, priority 2016, published 2021)

Columns and labels:
Experiment in all cases: Immunofluorescence of anti-FZD5 Fab binding to CHO cells overexpressing Frizzled CRD
Parameters in all cases: key: −: no binding; +: very weak binder; ++: weak binder; +++: good binder; ++++: very good binder
FZD9 CRD = target: T1, FZD9 CRD (Homo sapiens, UniProt O00144)
T1 construct: G35-A161; GPI anchor signal (C); expressed in transfected cells; host or cells: CHO cells, lentiviral pLenti-puro
T1 sequence (O00144 35-161): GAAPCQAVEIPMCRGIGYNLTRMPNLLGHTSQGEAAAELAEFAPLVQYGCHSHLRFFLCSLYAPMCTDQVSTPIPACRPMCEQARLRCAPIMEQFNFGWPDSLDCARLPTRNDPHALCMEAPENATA
Experimental: (§1) Plasmids: pLCKO lentiviral vector used for knockout (TKO) library construction and expression of individual gRNAs was constructed as described previously (Hart et al., 2015). Briefly, single guide RNA (sgRNA) scaffold was amplified from px330 (Addgene 42230) and cloned into pLKO.TRC005 lentiviral vector (Broad Institute, Cambridge, Mass.) using AgeI/EcoRI restriction sites. BfuAI sites were added at the 5′ end of the sgRNA scaffold for cloning the TKO library or individual gRNA target sequences. Lenti Cas9-2A-BsdR vector used to generate Cas9 stable expression cell lines was constructed as described previously (Hart et al., 2015). Briefly, lentiCRISPR pXPR_001 (Addgene 49535) was modified through removal of the sgRNA scaffold region through NdeI/EcoRI digest and blunt ends generation using Large Klenow Fragment (NEB). 2A-puro was replaced with 2A-BsdR by PCR using the NheI/MluI sites. Each of the 10 human Frizzled cysteine rich domains (CRDs) were cloned into the lentiviral expression plasmid pLenti-puro in the following cassette: FZD_CRD-MYC-GPI.
(§2) To confirm that the FZD5-WNT7B circuit is not driven simply by expression and rule out the possibility of a disconnect between RNA and protein levels for the Wnt receptors in HPAF-II cells, a panel of recombinant Fabs were generated, alternatively referred to herein as ‘Frizzled profiler’, that can detect and discriminate all but one of the ten Frizzled receptors. […] To characterize the binding specificity of these Fabs on cells, a panel of 10 CHO cell lines was generated, each expressing the CRD domain of a different myc-tagged Frizzled family member anchored at the plasma membrane through a GPI anchor (CHO-myc-FZDGPI). Despite the high sequence identity between Frizzled family members (FIG. 7A, FIG. 7B), selective Fabs were identified for FZD4, FZD5, FZD6 and FZD10 as assessed by immunofluorescence and flow cytometry (FIG. 7D and FIG. 8). […] The FZD8 CRD is most homologous to that of FZD5 (FIG. 7B). These Fabs can be used to discriminate expression of FZD1, FZD2, FZD4, FZD5, FZD6, FZD7, FZD8, FZD9 and FZD10 (FIG. 7D and FIG. 8). The ‘Frizzled profiler’ therefore consists of 10 different Fabs that can be used to discriminate expression of 9 different Frizzled family members. The Frizzled profiler was then used to confirm that HPAF-II cells express FZD1, FZD5, FZD6 and possibly FZD8 (FIG. 7E).
(§3) The binding of anti-FZD5 Fabs to cell surface-expressed Frizzled protein was further determined for each member of the Frizzled family via flow cytometry and immunofluorescence analysis of a panel of 10 CHO cell lines, each ectopically over-expressing the extracellular cysteine-rich domain (CRD) of a different Frizzled protein family member.

FZD5 CRD = target: T2, FZD5 CRD (Homo sapiens, UniProt Q13467)
T2 construct: K29-T156; GPI anchor signal (C); expressed in transfected cells; host or cells: CHO cells, lentiviral pLenti-puro
T2 sequence (Q13467 29-156): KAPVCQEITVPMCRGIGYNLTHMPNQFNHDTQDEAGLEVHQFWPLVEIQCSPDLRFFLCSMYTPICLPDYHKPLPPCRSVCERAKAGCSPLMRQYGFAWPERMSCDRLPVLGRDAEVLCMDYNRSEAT
Experimental: as §1, §2, §3

FZD10 CRD = target: T3, FZD10 CRD (Homo sapiens, UniProt Q9ULW2)
T3 construct: 30-156; GPI anchor signal (C); expressed in transfected cells; host or cells: CHO cells, lentiviral pLenti-puro
T3 sequence (Q9ULW2 30-156): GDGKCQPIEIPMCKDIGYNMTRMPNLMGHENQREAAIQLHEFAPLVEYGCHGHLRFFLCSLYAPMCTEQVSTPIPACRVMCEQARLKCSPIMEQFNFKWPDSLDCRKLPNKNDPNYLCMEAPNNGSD
Experimental: as §1, §2, §3

FZD8 CRD = target: T4, FZD8 CRD (Homo sapiens, UniProt Q9H461)
T4 construct: K31-D155; GPI anchor signal (C); expressed in transfected cells; host or cells: CHO cells, lentiviral pLenti-puro
T4 sequence (Q9H461 31-155): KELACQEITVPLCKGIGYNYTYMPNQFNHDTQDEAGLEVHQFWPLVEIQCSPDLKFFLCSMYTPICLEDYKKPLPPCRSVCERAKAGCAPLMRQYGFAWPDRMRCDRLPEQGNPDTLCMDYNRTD
Experimental: as §1, §2, §3

FZD3 CRD = target: T5, FZD3 CRD (Homo sapiens, UniProt Q9NPG1)
T5 construct: CRD of FZD1, FZD2, FZD3, FZD4, FZD5, FZD6, FZD7, FZD8, FZD9 or FZD10; GPI anchor signal (C); expressed in transfected cells; host or cells: CHO cells, lentiviral pLenti-puro
T5 sequence (Q9NPG1 23-136 limits assumed): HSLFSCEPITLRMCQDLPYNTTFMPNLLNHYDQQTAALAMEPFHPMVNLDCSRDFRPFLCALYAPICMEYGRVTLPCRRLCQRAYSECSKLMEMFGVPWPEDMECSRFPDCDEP
Experimental: as §1, §2, §3

FZD1 CRD = target: T6, FZD1 CRD (Homo sapiens, UniProt Q9UP38)
T6 construct: D112-P238; GPI anchor signal (C); expressed in transfected cells; host or cells: CHO cells, lentiviral pLenti-puro
Experimental: as §1, §2, §3

FZD4 CRD = target: T7, FZD4 CRD (Homo sapiens, UniProt Q9ULV1)
T7 construct: E42-V167; GPI anchor signal (C); expressed in transfected cells; host or cells: CHO cells, lentiviral pLenti-puro
T7 sequence (Q9ULV1 42-167): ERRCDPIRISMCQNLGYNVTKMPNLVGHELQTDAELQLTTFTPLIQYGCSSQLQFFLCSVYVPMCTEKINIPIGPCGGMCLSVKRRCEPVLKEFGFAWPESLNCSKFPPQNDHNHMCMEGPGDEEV
Experimental: as §1, §2, §3

Immunofluorescence binding, Frizzled CRD overexpressed on CHO cells: FZD9 (FZD9 CRD): − | Immunofluorescence binding, Frizzled CRD overexpressed on CHO cells: FZD5 (FZD5 CRD): ++++ | Immunofluorescence binding, Frizzled CRD overexpressed on CHO cells: FZD10 (FZD10 CRD): − | Immunofluorescence binding, Frizzled CRD overexpressed on CHO cells: FZD8 (FZD8 CRD): − | Immunofluorescence binding, Frizzled CRD overexpressed on CHO cells: FZD3 (FZD3 CRD): − | Immunofluorescence binding, Frizzled CRD overexpressed on CHO cells: FZD1 (FZD1 CRD): − | Immunofluorescence binding, Frizzled CRD overexpressed on CHO cells: FZD4 (FZD4 CRD): −
Substance: Fab-2931: anti-FZD5 Fab with antibody variable region Fv-2931; CDR SEQ ID NOs: 35, 36, 70, 102, 146, 176 (CDR 1 QSVSSA; CDR 2 SAS; CDR 3 QQSSYSLIT; CDR 4 GFNLSYSS; CDR 5 ISPYSGST; CDR 6 ARGSYWYVGGGWWVSGHGGMDY)
